In the supplement of paper PMC10567573 one finds protein stability index data, which are given here for 53 sequences.

A short description of the series: protein stability index of a GFP-peptide fusion (GPS, HEK-293T) (PSI 1-6); higher = more stable.
[1] abbreviates: treatment: DMSO, c terminus: a fixed tail appended.
Setting [2] is: treatment: MLN4924 1 uM, 8 h, c terminus: a fixed tail appended.

± gives the standard deviation.
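Also: 24-mer peptide tiles fused after GFP, lentivirally expressed, FACS-sorted into six equal bins by GFP/DsRed ratio, decoded by Illumina sequencing, PSI is the read-weighted mean bin number.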

Regarding PLSPPTAPDRATAVATASRLGPYV [TRIB3], the protein stability index was 4.72 ± 0.26 under setting [1] and 4.65 ± 0.091 under setting [2]. On the same counts, the results for MTVVRMDASVQPGPFRTLLQFLYT [RHOBTB1] are 2.41 ± 0.4 and 2.25 ± 0.4. For KYRNPSLKLMVNVCGHTLCESCVD [MNAT1], the protein stability index was 2.53 ± 0.34 under setting [1] and 2.83 ± 0.31 under setting [2]. The corresponding values for INYNGIFSLKQEETLDYGKNYNYG [NEUROD6] are 2.49 ± 0.22 and 2.53 ± 0.22.

Regarding SYNACGVLSHIMFDGPEAWGVCEP [ZER1], the protein stability index is 2.13 ± 0.45 under setting [1] and 2.44 ± 0.41 under setting [2].

Turning to GRESYIPGICVARVYHGWLFEGLG [SLA], the protein stability index under setting [2] amounted to 1.8 ± 0.88. For LDAVEAQIGCKLPDDYRCSYRIHN [FBXO3], the protein stability index under setting [1] was determined as 2.98 ± 0.39 and the protein stability index under setting [2] worked out at 3.15 ± 0.33. For the sequence GAREEDLDAVEAQIGCKLPDDYRC [FBXO3], the protein stability index is, setting by setting: under setting [1], 5.25 ± 0.073; under setting [2], 5.15 ± 0.12. With PLFYPGIRAGRKNAAPLTIRPPTD [TRIM39], the protein stability index was determined as 3.56 ± 0.25 under setting [1] and 3.58 ± 0.15 under setting [2].

With MRHEELLTKTFQGPAVVCGTPTSH [LYSMD4], the protein stability index is 3.82 ± 0.19 under setting [1] and 3.82 ± 0.13 under setting [2]. As for TKEKKHQCDHCERCFYTRKDVRRH [PLAGL1], the protein stability index reads like this: under setting [1], 3.69 ± 0.48; under setting [2], 4.2 ± 0.5. The sequence NVLSVNLPDNFTLKEDGMETVPWF [TPH1] yielded a protein stability index under setting [1] of 2.75 ± 0.21 and a protein stability index under setting [2] of 2.92 ± 0.17. Consider APPPLKDDPEGDRDGCVITKVLL [ZBED3], for which the protein stability index was determined as 5.4 ± 0.25 (treatment: DMSO, c terminus: native) and 5.43 ± 0.4 (treatment: MLN4924 1 uM, 8 h, c terminus: native). Turning to TYNLTEVDKYVNSFVLKNFPALLS [KLHL13], the protein stability index stood at 2.08 ± 0.26 under setting [1] and 2.28 ± 0.23 under setting [2]. The corresponding values for IRKGESRSEALAVDGAGKPGAEEA [CHGA] are 5.48 ± 0.12 and 5.43 ± 0.31. On the same counts, the results for RYAEHVAATQALPQDSGTAAWKGR [C22orf31] are 4.1 ± 0.17 and 4.14 ± 0.35. For the sequence RLTSQDWERVHLIVAGGYDERVLE [ALG2], the protein stability index was 3.06 ± 0.28 under setting [1] and 3.21 ± 0.27 under setting [2].

ICPICLEMFTKPVVILPCQHNLCR [TRIM55]: the protein stability index was 2.42 ± 0.17 under setting [1] and 2.96 ± 0.51 under setting [2]. Take FWLGNEALHSLTQAGDYSMRVDLR [TNXB]: the protein stability index under setting [1] turned out to be 2.19 ± 0.71 and the protein stability index under setting [2] amounted to 2.44 ± 0.14. On the same counts, the results for LALRTLPGPSWVRGSGPSVLSRLQ [ALKBH7] are 2.62 ± 0.14 and 2.48 ± 0.3. The corresponding values for ALGHLGNDDSADYQHFLQDCVDGL [DLC1] are 4.26 ± 0.17 and 4.28 ± 0.46. The corresponding values for VLTLPFDVVKTQRQVALGAMEAVR [SLC25A39] are 2.51 ± 0.36 and 2.71 ± 0.26.

In turn, TIYGLHALEQGGLRAATMSAVEAA [PYCR3] had a protein stability index under setting [1] of 2.85 ± 0.65 and a protein stability index under setting [2] of 3.22 ± 0.8. With PPPPPGLPSDGDHQVPTTAGNKAA [WASL], the protein stability index by setting is: under setting [1], 5.46 ± 0.33; under setting [2], 5.43 ± 0.12. For TPSPADAKAPPTACYAGAAPAPSQ [CEBPB], the protein stability index is, setting by setting: under setting [1], 4.75 ± 0.38; under setting [2], 4.75 ± 0.27. On the same counts, the results for PGSCGAGAPSPGSSDVSTAGTGAS [ELF3] are 4.98 ± 0.29 and 5.08 ± 0.17. The corresponding values for DERIFSLTRRLAHGEELRVSARSR [HAGHL] are 4.1 ± 0.33 and 4.12 ± 0.32. In the case of KVYYEVIQLIKTNKKHIHSRSTLE [SMG5], the protein stability index runs as follows: under setting [1], 2.33 ± 0.93; under setting [2], 2.26 ± 0.25.

Turning to DVYSFAIVIWGVLTQKKPFADEKN [RIPK4], the protein stability index was 2.61 ± 0.77 under setting [1] and 1.86 ± 0.072 under setting [2]. For TDIELEIYGMEGIPEKDMDERRRL [ZNF207], the protein stability index is, setting by setting: under setting [1], 4.77 ± 0.097; under setting [2], 4.86 ± 0.22. For EFKAAFDMFDADGGGDISVKELGT [TNNC2], the protein stability index worked out at 4.16 ± 0.13 under setting [1] and 4.63 ± 0.11 under setting [2]. The corresponding values for LIFFGGYGYLPEDKVLGTFEFDET [KLHDC2] are 2.13 ± 0.66 and 2.6 ± 0.73. On the same counts, the results for SALPTGSPKRGTAPGDLSATEPAT [FBF1] are 5.32 ± 0.36 and 5.32 ± 0.086. The corresponding values for RRSFLNAHHRSGAQVFPESPESES [GNAS] are 5.02 ± 0.25 and 5.03 ± 0.11. As for ICDRTATPLDAFRMTSAAHYYPKL [GFOD1], the protein stability index was 2.85 ± 0.21 under setting [1] and 2.82 ± 0.16 under setting [2]. The corresponding values for WLLNNLMTHQNVELFKELSINVMK [GMCL1] are 2.28 ± 0.54 and 2.08 ± 0.3. As for MQIAVPCAFLLLRLLVGLALATLR [TMEM175], the protein stability index under setting [1] was 2.46 ± 0.28 and the protein stability index under setting [2] came out at 2.26 ± 0.17. Regarding KVKVPQKTAGKENHFDMHRVGKWH [ZNF75A], the protein stability index under setting [1] worked out at 2.87 ± 0.45 and the protein stability index under setting [2] came out at 3.43 ± 0.51. The corresponding values for RAPQGCSGVDECARQEGLTFFGTE [PBXIP1] are 4.01 ± 0.35 and 4.3 ± 0.55. On the same counts, the results for NSFSLNSSISSSARRTTRSEPIRR [MAP2] are 4.46 ± 0.27 and 4.53 ± 0.13. The corresponding values for AVYFAEAEEAESHFSSIPDAFWWA [KCNA1] are 2.27 ± 0.4 and 2.53 ± 0.42.

For the sequence WIDIKQFVWYTPPTFMIAVFLPIV [STEAP1], the protein stability index reads like this: under setting [1], 2.67 ± 0.36; under setting [2], 3.39 ± 0.61.

Consider LSKSNKPIHTIILNPHVHLVGDDA [CAMK2D], for which the protein stability index is, setting by setting: under setting [1], 3.12 ± 0.3; under setting [2], 2.95 ± 0.48. On the same counts, the results for HQEGAKMAVRLAGGLQKMVALLNK [CTNNB1] are 2.4 ± 0.11 and 2.42 ± 0.27. As for ARLQEPVTFRDVAVDFTQEEWGQL [ZNF8], the protein stability index reads like this: under setting [1], 4.13 ± 0.2; under setting [2], 4.07 ± 0.22. The corresponding values for LEAGLPLQVRGYPEEKKEEEGSAN [CHGA] are 5.61 ± 0.35 and 5.79 ± 0.15. The corresponding values for IKGKSCRTITFEQFQEALEELAKK [TPPP] are 2.53 ± 0.26 and 2.62 ± 0.36. On the same counts, the results for AIMCVSCICWSPFLVTMANIGING [PTGFR] are 3.42 ± 0.095 and 3.71 ± 0.45. Regarding ADDFRTKYEHELALRQTVEADVNG [KRT16], the protein stability index runs as follows: under setting [1], 5.17 ± 0.38; under setting [2], 5.09 ± 0.034. RLLSHDQVAMPYQWEYPYLLSILP [JAGN1]: the protein stability index by setting is: under setting [1], 2.15 ± 0.19; under setting [2], 1.99 ± 0.16. The corresponding values for NSVCSKFRKEIKSKSADNQEYFER [RHOBTB1] are 4.26 ± 0.19 and 4.45 ± 0.32. The corresponding values for GQPLRPLVPDASKQRLMENTEDWR [PDLIM7] are 4.54 ± 0.24 and 4.72 ± 0.18. The corresponding values for AFPQTPFKTGNSTATCTTNNNPNS [KCNA3] are 4.61 ± 0.4 and 4.62 ± 0.17.
